Measurements taken from the supplement of paper PMC9233669.
Fewer inactive variants are shown than the library holds.

Tests used:
[1] = system: biotinyl-Ile-oxazolone; experiment: self-aminoacylation, catalytic enhancement (BIO) (fold over background); higher = more active; k-Seq, kA / k0A0; sequences stand for … in GGGAAUGGAUCCACAUCUACGAAUUC…UUCACUGCAGACUUGACGAAGCUG
How it was run: (§1)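 Each biotinyl-aminoacyl-oxazolone, at 2–1250 μM, was incubated with mutagenized RNA pools (0.43 μM) carrying a 21-nt variable region. The 50 μL reactions contained HEPES/NaCl/KCl/MgCl2/CaCl2 buffer with 5% acetonitrile at pH 6.9–7.0 and ran for 90 minutes at room temperature. After streptavidin capture, RNA was measured by qPCR in triplicate and by Illumina sequencing, and catalytic enhancement was calculated as median kA over the uncatalyzed rate from a pseudo-first-order fit of per-sequence fraction reacted.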

[2] = system: biotinyl-Val-oxazolone; experiment: self-aminoacylation, catalytic enhancement (BVO) (fold over background); higher = more active; k-Seq, kA / k0A0; sequences stand for … in GGGAAUGGAUCCACAUCUACGAAUUC…UUCACUGCAGACUUGACGAAGCUG
How it was run: as §1

[3] = system: biotinyl-Leu-oxazolone; experiment: self-aminoacylation, catalytic enhancement (BLO) (fold over background); higher = more active; k-Seq, kA / k0A0; sequences stand for … in GGGAAUGGAUCCACAUCUACGAAUUC…UUCACUGCAGACUUGACGAAGCUG
How it was run: as §1

[4] = system: biotinyl-Phe-oxazolone; experiment: self-aminoacylation, catalytic enhancement (BFO) (fold over background); higher = more active; k-Seq, kA / k0A0; sequences stand for … in GGGAAUGGAUCCACAUCUACGAAUUC…UUCACUGCAGACUUGACGAAGCUG
How it was run: as §1

[5] = system: biotinyl-Trp-oxazolone; experiment: self-aminoacylation, catalytic enhancement (BWO) (fold over background); higher = more active; k-Seq, kA / k0A0; sequences stand for … in GGGAAUGGAUCCACAUCUACGAAUUC…UUCACUGCAGACUUGACGAAGCUG
How it was run: as §1

[6] = system: biotinyl-Met-oxazolone; experiment: self-aminoacylation, catalytic enhancement (BMO) (fold over background); higher = more active; k-Seq, kA / k0A0; sequences stand for … in GGGAAUGGAUCCACAUCUACGAAUUC…UUCACUGCAGACUUGACGAAGCUG
How it was run: as §1

Sequence | self-aminoacylation [1] | self-aminoacylation [2] | self-aminoacylation [3] | self-aminoacylation [4] | self-aminoacylation [5] | self-aminoacylation [6]
AUUCACCAAGGUUAUCGGGUG [Fam2.2 aminoacylation ribozyme variant] | 4.45 | 4.4 | 8.94 | 63.7 | 6.57 | 7.8
AUUCACCAAUGUCAUCGGGUG [Fam2.2 aminoacylation ribozyme variant] | 5.59 | 5.57 | 12.6 | 75.3 | 8.56 | 9.72
AUUCACCACGGUCAUCGGGUG [Fam2.2 aminoacylation ribozyme variant] | 5.71 | 6.13 | 12.3 | 68.7 | 10 | 9.37
AUUCACCCAGGGCAUCGGGUG [Fam2.2 aminoacylation ribozyme variant] | 3.62 | 3.72 | 6.26 | 20 | 3.92 | 3.74
AUUCACCCAGGUAAUCGGGUG [Fam2.2 aminoacylation ribozyme variant] | 2.26 | 2.14 | 3.88 | 18.6 | 2.46 | 3.1
AUUCACCCAGGUCAUCGGAUG [Fam2.2 aminoacylation ribozyme variant] | 0.889 | 0.988 | 0.895 | 0.458 | 1.07 | 0.669
AUUCACCCAGGUCAUCGGCUG [Fam2.2 aminoacylation ribozyme variant] | 1.99 | 2 | 1.85 | 6.8 | 1.41 | 1.62
AUUCACCCAGGUCAUCUGGUG [Fam2.2 aminoacylation ribozyme variant] | 2.35 | 2.25 | 4.84 | 28.2 | 3 | 3.99
AUUCACCCAGGUCUUCGGGUG [Fam2.2 aminoacylation ribozyme variant] | 3.28 | 3.84 | 5.78 | 35 | 5.13 | 5.3
AUUCACCCCGGUCAUCGGGUG [Fam2.2 aminoacylation ribozyme variant] | 4.14 | 3.99 | 8.33 | 64.7 | 5.88 | 7.52
AUUCACCGAGGCCAUCGGGUG [Fam2.2 aminoacylation ribozyme variant] | 3.16 | 4.36 | 6.39 | 32.8 | 4.78 | 5.31
AUUCACCGAGGUAAUCGGGUG [Fam2.2 aminoacylation ribozyme variant] | 4.23 | 5.13 | 11.5 | 60.4 | 8.26 | 8.27
AUUCACCGAGGUCAUCGGAUG [Fam2.2 aminoacylation ribozyme variant] | 1.18 | 1.17 | 1.41 | 0.641 | 1.42 | 1.07
AUUCACCGAGGUCGUCGGGUG [Fam2.2 aminoacylation ribozyme variant] | 2.55 | 2.55 | 3.03 | 11.1 | 3 | 3.16
AUUCACCGAGGUGAUCGGGUG [Fam2.2 aminoacylation ribozyme variant] | 3.8 | 4.15 | 6.59 | 29.6 | 3.05 | 4.75
AUUCACCGAGGUUAUCGGGUG [Fam2.2 aminoacylation ribozyme variant] | 4.28 | 5.85 | 10 | 87.3 | 7.66 | 7.16
AUUCACCUAACUCAUCGGGUG [Fam2.2 aminoacylation ribozyme variant] | 2.36 | 2.41 | 4.47 | 22.8 | 3.17 | 4.05
AUUCACCUAAGCCAUCGGGUG [Fam2.2 aminoacylation ribozyme variant] | 2.55 | 3.24 | 4.62 | 26.6 | 3.01 | 3
AUUCACCUAAGGCAUCGGGUG [Fam2.2 aminoacylation ribozyme variant] | 2.69 | 3.31 | 4.9 | 26.5 | 3.67 | 3.3
AUUCACCUAAGUCAACGGGUG [Fam2.2 aminoacylation ribozyme variant] | 2.58 | 2.43 | 4.67 | 28 | 3.21 | 3.57
AUUCACCUAAGUCACCGGGUG [Fam2.2 aminoacylation ribozyme variant] | 4.72 | 4.88 | 8.36 | 53.8 | 5.67 | 7.03
AUUCACCUAAGUCAUAGGGUG [Fam2.2 aminoacylation ribozyme variant] | 1.32 | 1.21 | 1.92 | 5.88 | 1.3 | 1.87
AUUCACCUAAGUCAUCGGAUG [Fam2.2 aminoacylation ribozyme variant] | 0.917 | 0.983 | 0.815 | 0.343 | 0.557 | 0.736
